Sequences and labels used below:
B1: XRN2_HUMAN (protein, UniProt Q9H0D6 1-950, looked up)
5'-3' exoribonuclease 2: MGVPAFFRWLSRKYPSIIVNCVEEKPKECNGVKIPVDASKPNPNDVEFDNLYLDMNGIIHPCTHPEDKPAPKNEDEMMVAIFEYIDRLFSIVRPRRLLYMAIDGVAPRAKMNQQRSRRFRASKEGMEAAVEKQRVREEILAKGGFLPPEEIKERFDSNCITPGTEFMDNLAKCLRYYIADRLNNDPGWKNLTVILSDASAPGEGEHKIMDYIRRQRAQPNHDPNTHHCLCGADADLIMLGLATHEPNFTIIREEFKPNKPKPCGLCNQFGHEVKDCEGLPREKKGKHDELADSLPCAEGEFIFLRLNVLREYLERELTMASLPFTFDVERSIDDWVFMCFFVGNDFLPHLPSLEIRENAIDRLVNIYKNVVHKTGGYLTESGYVNLQRVQMIMLAVGEVEDSIFKKRKDDEDSFRRRQKEKRKRMKRDQPAFTPSGILTPHALGSRNSPGSQVASNPRQAAYEMRMQNNSSPSISPNTSFTSDGSPSPLGGIKRKAEDSDSEPEPEDNVRLWEAGWKQRYYKNKFDVDAADEKFRRKVVQSYVEGLCWVLRYYYQGCASWKWYYPFHYAPFASDFEGIADMPSDFEKGTKPFKPLEQLMGVFPAASGNFLPPSWRKLMSDPDSSIIDFYPEDFAIDLNGKKYAWQGVALLPFVDERRLRAALEEVYPDLTPEETRRNSLGGDVLFVGKHHPLHDFILELYQTGSTEPVEVPPELCHGIQGKFSLDEEAILPDQIVCSPVPMLRDLTQNTVVSINFKDPQFAEDYIFKAVMLPGARKPAAVLKPSDWEKSSNGRQWKPQLGFNRDRRPVHLDQAAFRTLGHVMPRGSGTGIYSNAAPPPVTYQGNLYRPLLRGQAQIPKLMSNMRPQDSWRGPPPLFQQQRFDRGVGAEPLLPWNRMLQTQNAAFQPNQYQMLAGPGGYPPRRDDRGGRQGYPREGRKYPLPPPSGRYNWN
B2: MCM3_HUMAN (protein, UniProt P25205 2-808, looked up)
DNA replication licensing …: AGTVVLDDVELREAQRDYLDFLDDEEDQGIYQSKVRELISDNQYRLIVNVNDLRRKNEKRANRLLNNAFEELVAFQRALKDFVASIDATYAKQYEEFYVGLEGSFGSKHVSPRTLTSCFLSCVVCVEGIVTKCSLVRPKVVRSVHYCPATKKTIERRYSDLTTLVAFPSSSVYPTKDEENNPLETEYGLSVYKDHQTITIQEMPEKAPAGQLPRSVDVILDDDLVDKAKPGDRVQVVGTYRCLPGKKGGYTSGTFRTVLIACNVKQMSKDAQPSFSAEDIAKIKKFSKTRSKDIFDQLAKSLAPSIHGHDYVKKAILCLLLGGVERDLENGSHIRGDINILLIGDPSVAKSQLLRYVLCTAPRAIPTTGRGSSGVGLTAAVTTDQETGERRLEAGAMVLADRGVVCIDEFDKMSDMDRTAIHEVMEQGRVTIAKAGIHARLNARCSVLAAANPVYGRYDQYKTPMENIGLQDSLLSRFDLLFIMLDQMDPEQDREISDHVLRMHRYRAPGEQDGDAMPLGSAVDILATDDPNFSQEDQQDTQIYEKHDNLLHGTKKKKEKMVSAAFMKKYIHVAKIIKPVLTQESATYIAEEYSRLRSQDSMSSDTARTSPVTARTLETLIRLATAHAKARMSKTVDLQDAEEAVELVQYAYFKKVLEKEKKRKKRSEDESETEDEEEKSQEDQEQKRKRRKTRQPDAKDGDSYDPYDFSDTEEEMPQVHTPKTADSQETKESQKVELSESRLKAFKVALLDVFREAHAQSIGMNRLTESINRDSEEPFSSVEIQAALSKMQDDNQVMVSEGIIFLI
B3: RBM14_HUMAN (protein, UniProt Q96PK6 1-669, looked up)
RNA-binding protein 14: MKIFVGNVDGADTTPEELAALFAPYGTVMSCAVMKQFAFVHMRENAGALRAIEALHGHELRPGRALVVEMSRPRPLNTWKIFVGNVSAACTSQELRSLFERRGRVIECDVVKDYAFVHMEKEADAKAAIAQLNGKEVKGKRINVELSTKGQKKGPGLAVQSGDKTKKPGAGDTAFPGTGGFSATFDYQQAFGNSTGGFDGQARQPTPPFFGRDRSPLRRSPPRASYVAPLTAQPATYRAQPSVSLGAAYRAQPSASLGVGYRTQPMTAQAASYRAQPSVSLGAPYRGQLASPSSQSAAASSLGPYGGAQPSASALSSYGGQAAAASSLNSYGAQGSSLASYGNQPSSYGAQAASSYGVRAAASSYNTQGAASSLGSYGAQAASYGAQSAASSLAYGAQAASYNAQPSASYNAQSAPYAAQQAASYSSQPAAYVAQPATAAAYASQPAAYAAQATTPMAGSYGAQPVVQTQLNSYGAQASMGLSGSYGAQSAAAATGSYGAAAAYGAQPSATLAAPYRTQSSASLAASYAAQQHPQAAASYRGQPGNAYDGAGQPSAAYLSMSQGAVANANSTPPPYERTRLSPPRASYDDPYKKAVAMSKRYGSDRRLAELSDYRRLSESQLSFRRSPTKSSLDYRRLPDAHSDYARYSGSYNDYLRAAQMHSGYQRRM
B4: SRC8_HUMAN (protein, UniProt Q14247 1-550, looked up)
Src substrate cortactin: MWKASAGHAVSIAQDDAGADDWETDPDFVNDVSEKEQRWGAKTVQGSGHQEHINIHKLRENVFQEHQTLKEKELETGPKASHGYGGKFGVEQDRMDKSAVGHEYQSKLSKHCSQVDSVRGFGGKFGVQMDRVDQSAVGFEYQGKTEKHASQKDYSSGFGGKYGVQADRVDKSAVGFDYQGKTEKHESQRDYSKGFGGKYGIDKDKVDKSAVGFEYQGKTEKHESQKDYVKGFGGKFGVQTDRQDKCALGWDHQEKLQLHESQKDYKTGFGGKFGVQSERQDSAAVGFDYKEKLAKHESQQDYSKGFGGKYGVQKDRMDKNASTFEDVTQVSSAYQKTVPVEAVTSKTSNIRANFENLAKEKEQEDRRKAEAERAQRMAKERQEQEEARRKLEEQARAKTQTPPVSPAPQPTEERLPSSPVYEDAASFKAELSYRGPVSGTEPEPVYSMEAADYREASSQQGLAYATEAVYESAEAPGHYPAEDSTYDEYENDLGITAVALYDYQAAGDDEISFDPDDIITNIEMIDDGWWRGVCKGRYGLFPANYVELRQ
B5: SFPQ_HUMAN (protein, UniProt P23246 1-707, looked up)
Splicing factor, proline- and …: MSRDRFRSRGGGGGGFHRRGGGGGRGGLHDFRSPPPGMGLNQNRGPMGPGPGQSGPKPPIPPPPPHQQQQQPPPQQPPPQQPPPHQPPPHPQPHQQQQPPPPPQDSSKPVVAQGPGPAPGVGSAPPASSSAPPATPPTSGAPPGSGPGPTPTPPPAVTSAPPGAPPPTPPSSGVPTTPPQAGGPPPPPAAVPGPGPGPKQGPGPGGPKGGKMPGGPKPGGGPGLSTPGGHPKPPHRGGGEPRGGRQHHPPYHQQHHQGPPPGGPGGRSEEKISDSEGFKANLSLLRRPGEKTYTQRCRLFVGNLPADITEDEFKRLFAKYGEPGEVFINKGKGFGFIKLESRALAEIAKAELDDTPMRGRQLRVRFATHAAALSVRNLSPYVSNELLEEAFSQFGPIERAVVIVDDRGRSTGKGIVEFASKPAARKAFERCSEGVFLLTTTPRPVIVEPLEQLDDEDGLPEKLAQKNPMYQKERETPPRFAQHGTFEYEYSQRWKSLDEMEKQQREQVEKNMKDAKDKLESEMEDAYHEHQANLLRQDLMRRQEELRRMEELHNQEMQKRKEMQLRQEEERRRREEEMMIRQREMEEQMRRQREESYSRMGYMDPRERDMRMGGGGAMNMGDPYGSGGQKFPPLGGGGGIGYEANPGVPPATMSGSMMGSDMRTERFGQGGAGPVGGQGPRGMGPGTPAGYGRGREEYEGPNKKPRF
B6: ZYX_HUMAN (protein, UniProt Q15942 2-572, looked up)
Zyxin: AAPRPSPAISVSVSAPAFYAPQKKFGPVVAPKPKVNPFRPGDSEPPPAPGAQRAQMGRVGEIPPPPPEDFPLPPPPLAGDGDDAEGALGGAFPPPPPPIEESFPPAPLEEEIFPSPPPPPEEEGGPEAPIPPPPQPREKVSSIDLEIDSLSSLLDDMTKNDPFKARVSSGYVPPPVATPFSSKSSTKPAAGGTAPLPPWKSPSSSQPLPQVPAPAQSQTQFHVQPQPQPKPQVQLHVQSQTQPVSLANTQPRGPPASSPAPAPKFSPVTPKFTPVASKFSPGAPGGSGSQPNQKLGHPEALSAGTGSPQPPSFTYAQQREKPRVQEKQHPVPPPAQNQNQVRSPGAPGPLTLKEVEELEQLTQQLMQDMEHPQRQNVAVNELCGRCHQPLARAQPAVRALGQLFHIACFTCHQCAQQLQGQQFYSLEGAPYCEGCYTDTLEKCNTCGEPITDRMLRATGKAYHPHCFTCVVCARPLEGTSFIVDQANRPHCVPDYHKQYAPRCSVCSEPIMPEPGRDETVRVVALDKNFHMKCYKCEDCGKPLSIEADDNGCFPLDGHVLCRKCHTARAQT
B7: SYAM_HUMAN (protein, UniProt Q5JTZ9 24-985, looked up)
Alanine--tRNA ligase, …: GLSHRPLSSEPPAAKASAVRAAFLNFFRDRHGHRLVPSASVRPRGDPSLLFVNAGMNQFKPIFLGTVDPRSEMAGFRRVANSQKCVRAGGHHNDLEDVGRDLSHHTFFEMLGNWAFGGEYFKEEACNMAWELLTQVYGIPEERLWISYFDGDPKAGLDPDLETRDIWLSLGVPASRVLSFGPQENFWEMGDTGPCGPCTEIHYDLAGGVGAPQLVELWNLVFMQHNREADGSLQPLPQRHVDTGMGLERLVAVLQGKHSTYDTDLFSPLLNAIQQGCRAPPYLGRVGVADEGRTDTAYRVVADHIRTLSVCISDGIFPGMSGPPLVLRRILRRAVRFSMEILKAPPGFLGSLVPVVVETLGDAYPELQRNSAQIANLVSEDEAAFLASLERGRRIIDRTLRTLGPSDMFPAEVAWSLSLCGDLGLPLDMVELMLEEKGVQLDSAGLERLAQEEAQHRARQAEPVQKQGLWLDVHALGELQRQGVPPTDDSPKYNYSLRPSGSYEFGTCEAQVLQLYTEDGTAVASVGKGQRCGLLLDRTNFYAEQGGQASDRGYLVRAGQEDVLFPVARAQVCGGFILHEAVAPECLRLGDQVQLHVDEAWRLGCMAKHTATHLLNWALRQTLGPGTEQQGSHLNPEQLRLDVTTQTPLTPEQLRAVENTVQEAVGQDEAVYMEEVPLALTAQVPGLRSLDEVYPDPVRVVSVGVPVAHALDPASQAALQTSVELCCGTHLLRTGAVGDLVIIGDRQLSKGTTRLLAVTGEQAQQARELGQSLAQEVKAATERLSLGSRDVAEALRLSKDIGRLIEAVETAVMPQWQRRELLATVKMLQRRANTAIRKLQMGQAAKKTQELLERHSKGPLIVDTVSAESLSVLVKVVRQLCEQAPSTSVLLLSPQPMGKVLCACQVAQGAMPTFTAEAWALAVCSHMGGKAWGSRVVAQGTGSTTDLEAALSIAQTYALSQL
B8: SC23A_HUMAN (protein, UniProt Q15436 2-765, looked up)
Protein transport protein …: TTYLEFIQQNEERDGVRFSWNVWPSSRLEATRMVVPVAALFTPLKERPDLPPIQYEPVLCSRTTCRAVLNPLCQVDYRAKLWACNFCYQRNQFPPSYAGISELNQPAELLPQFSSIEYVVLRGPQMPLIFLYVVDTCMEDEDLQALKESMQMSLSLLPPTALVGLITFGRMVQVHELGCEGISKSYVFRGTKDLSAKQLQEMLGLSKVPLTQATRGPQVQQPPPSNRFLQPVQKIDMNLTDLLGELQRDPWPVPQGKRPLRSSGVALSIAVGLLECTFPNTGARIMMFIGGPATQGPGMVVGDELKTPIRSWHDIDKDNAKYVKKGTKHFEALANRAATTGHVIDIYACALDQTGLLEMKCCPNLTGGYMVMGDSFNTSLFKQTFQRVFTKDMHGQFKMGFGGTLEIKTSREIKISGAIGPCVSLNSKGPCVSENEIGTGGTCQWKICGLSPTTTLAIYFEVVNQHNAPIPQGGRGAIQFVTQYQHSSGQRRIRVTTIARNWADAQTQIQNIAASFDQEAAAILMARLAIYRAETEEGPDVLRWLDRQLIRLCQKFGEYHKDDPSSFRFSETFSLYPQFMFHLRRSSFLQVFNNSPDESSYYRHHFMRQDLTQSLIMIQPILYAYSFSGPPEPVLLDSSSILADRILLMDTFFQILIYHGETIAQWRKSGYQDMPEYENFRHLLQAPVDDAQEILHSRFPMPRYIDTEHGGSQARFLLSKVNPSQTHNNMYAWGQESGAPILTDDVSLQVFMDHLKKLAVSSAA

The subject of the assay is KDM4A-I71AzF. The assay is described as follows: CASI: photo-crosslinking with HEK293T cell extracts, StrepTactin enrichment and LC-MS/MS proteomics.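 Also: lysates from HEK293T cells pretreated with a KDM4 inhibitor to raise proteome methylation, affinity-purified after ±UV, gel-resolved, trypsin-digested, with exclusive unique peptides per protein averaged per condition.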 It is filed as binding, human. The conditions noted are these: sheet "Final results but with 0.01".
Turning to B1, the “Fold change (+UV/-UV)” value amounted to 2.5.

B2: the “Fold change (+UV/-UV)” value was found to be 1.2.

Turning to B3, the “Fold change (+UV/-UV)” value came to 2.

Consider B4, for which the “Fold change (+UV/-UV)” value is 0.8.

Take B5: the “Fold change (+UV/-UV)” value is given as 0.9.

Turning to B6, the “Fold change (+UV/-UV)” value is reported as 0.

As for B7, the “Fold change (+UV/-UV)” value amounted to 0.625.

Turning to B8, the “Fold change (+UV/-UV)” value was 0.5.

The values above are taken from publication PMC10540216, “Activity Guided Azide-methyllysine Photo-trapping for Substrate Profiling of Lysine Demethylases” (Journal of the American Chemical Society, 2023).
